Measured values taken from patent EP3443010B1.

Molecular target: recombinant hSIRPa (Sino Biologicals, reference 11612-H08H) (human) (UniProt P78324)
Assay: ELISA, hSIRPa (Sino 11612-H08H) coated at 0.5 ug/ml, anti-human IgG detection; second experiment

Chain of recombinant hSIRPa (Sino Biologicals, reference 11612-H08H) (human) (P78324 31-370): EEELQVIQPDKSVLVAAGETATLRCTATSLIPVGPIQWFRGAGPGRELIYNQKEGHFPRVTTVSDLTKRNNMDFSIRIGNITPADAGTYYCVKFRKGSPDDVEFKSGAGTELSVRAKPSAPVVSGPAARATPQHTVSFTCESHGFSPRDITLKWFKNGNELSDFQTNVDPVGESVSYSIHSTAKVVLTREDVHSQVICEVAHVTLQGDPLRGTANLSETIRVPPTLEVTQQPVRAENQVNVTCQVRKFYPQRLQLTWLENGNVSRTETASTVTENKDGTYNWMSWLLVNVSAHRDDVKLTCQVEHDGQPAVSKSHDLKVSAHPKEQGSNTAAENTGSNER

| Binder | EC50 |
| --- | --- |
| HCLB (antibody, human IgG4 S228P, kappa, V domains shown) VH: EVQLVQSGAEVKKPGESLRISCKASGYSFTSYWVHWVRQMPGKGLEWMGNIDPSDSDTHYSPSFQGHVTLSVDKSISTAYLQLSSLKASDTAMYYCVRGGTGTMAWFAYWGQGTLVTVSS VL: DVVMTQSPLSLPVTLGQPASISCRSSQSLVHSYGNTYLYWFQQRPGQSPRLLIYRVSNRFSGVPDRFSGSGSGTDFTLKISRVEAEDVGVYYCFQGTHVPYTFGGGTKVEIKR | 5.59 ng/mL |
| HCLA (antibody, human IgG4 S228P, kappa, V domains shown) VH: EVQLVQSGAEVKKPGESLRISCKASGYSFTSYWVHWVRQMPGKGLEWMGNIDPSDSDTHYSPSFQGHVTLSVDKSISTAYLQLSSLKASDTAMYYCVRGGTGTMAWFAYWGQGTLVTVSS VL: DVVMTQSPLSLPVTLGQPASISCRSSQSLVHSYGNTYLYWYQQRPGQSPRLLIYRVSNRFSGVPDRFSGSGSGTDFTLKISRVEAEDVGVYFCFQGTHVPYTFGGGTKVEIKR | 5.6 ng/mL |

Further lines, results first:

| EC50 | Binder |
| --- | --- |
| 4.61 ng/mL | HELA (antibody, human IgG4 S228P, kappa, V domains shown) VH: EVQLVQSGAEVKKPGESLRISCKASGYSFTSYWVHWVRQMPGKGLEWMGNIDPSDSDTHYSPSFQGHVTLSVDKSISTAYLQLSSLKASDTAMYYCVRGGTGTLAWFAYWGQGTLVTVSS VL: DVVMTQSPLSLPVTLGQPASISCRSSQSLVHSYGNTYLYWYQQRPGQSPRLLIYRVSNRFSGVPDRFSGSGSGTDFTLKISRVEAEDVGVYFCFQGTHVPYTFGGGTKVEIKR |
| 4.13 ng/mL | HELB (antibody, human IgG4 S228P, kappa, V domains shown) VH: EVQLVQSGAEVKKPGESLRISCKASGYSFTSYWVHWVRQMPGKGLEWMGNIDPSDSDTHYSPSFQGHVTLSVDKSISTAYLQLSSLKASDTAMYYCVRGGTGTLAWFAYWGQGTLVTVSS VL: DVVMTQSPLSLPVTLGQPASISCRSSQSLVHSYGNTYLYWFQQRPGQSPRLLIYRVSNRFSGVPDRFSGSGSGTDFTLKISRVEAEDVGVYYCFQGTHVPYTFGGGTKVEIKR |

Molecular target: recombinant hSIRPa (Sino Biologicals, reference 11612-H08H) (human) (UniProt P78324)
Assay: ELISA, hSIRPa (Sino 11612-H08H) coated at 0.5 ug/ml, anti-human IgG detection; third experiment

| EC50 | Binder |
| --- | --- |
| 2.95 ng/mL | HBLB (antibody, human IgG4 S228P, kappa, V domains shown) VH: EVQLVQSGAEVKKPGESLRISCKASGYSFTSYWVHWVRQMPGKGLEWMGNIDPSDSDTHYNQKFKDHVTLSVDKSISTAYLQLSSLKASDTAMYYCVRGGTGTMAWFAYWGQGTLVTVSS VL: DVVMTQSPLSLPVTLGQPASISCRSSQSLVHSYGNTYLYWFQQRPGQSPRLLIYRVSNRFSGVPDRFSGSGSGTDFTLKISRVEAEDVGVYYCFQGTHVPYTFGGGTKVEIKR |
| 2.53 ng/mL | HALB (antibody, human IgG4 S228P, kappa, V domains shown) VH: EVQLVQSGAEVKKPGESLRISCKASGYTFTSYWVHWVRQMPGKGLEWIGNIDPSDSDTHYNQKFKDHVTLSVDKSISTAYLQLSSLKASDTAMYYCVRGGTGTMAWFAYWGQGTLVTVSS VL: DVVMTQSPLSLPVTLGQPASISCRSSQSLVHSYGNTYLYWFQQRPGQSPRLLIYRVSNRFSGVPDRFSGSGSGTDFTLKISRVEAEDVGVYYCFQGTHVPYTFGGGTKVEIKR |
| 2.68 ng/mL | HBLA (antibody, human IgG4 S228P, kappa, V domains shown) VH: EVQLVQSGAEVKKPGESLRISCKASGYSFTSYWVHWVRQMPGKGLEWMGNIDPSDSDTHYNQKFKDHVTLSVDKSISTAYLQLSSLKASDTAMYYCVRGGTGTMAWFAYWGQGTLVTVSS VL: DVVMTQSPLSLPVTLGQPASISCRSSQSLVHSYGNTYLYWYQQRPGQSPRLLIYRVSNRFSGVPDRFSGSGSGTDFTLKISRVEAEDVGVYFCFQGTHVPYTFGGGTKVEIKR |

Molecular target: recombinant hSIRPa (Sino Biologicals, reference 11612-H08H) (human) (UniProt P78324)
Assay: ELISA, hSIRPa (Sino 11612-H08H) coated at 0.5 ug/ml, anti-human IgG detection

| EC50 | Binder |
| --- | --- |
| 3.3 ng/mL | Kwar23 (antibody, from another filing, V domains shown) VH: EVQLQQSGAELVKPGASVKLSCTASGFNIKDYYIHWVQQRTEQGLEWIGRIDPEDGETKYAPKFQDKATITADTSSNTAYLHLSSLTSEDTAVYYCARWGAYWGQGTLVTVSS VL: QIVLTQSPAIMSASPGEKVTLTCSASSSVSSSYLYWYQQKPGSSPKLWIYSTSNLASGVPARFSGSGSGTSYSLTISSMEAEDAASYFCHQWSSYPRTFGAGTKLELK |

Molecular target: recombinant hSIRPa (Sino Biologicals, reference 11612-H08H) (human) (UniProt P78324)
Assay: ELISA, hSIRPa (Sino 11612-H08H) coated at 0.5 ug/ml, anti-human IgG detection; first experiment

| Binder | EC50 |
| --- | --- |
| HALA (antibody, human IgG4 S228P, kappa, V domains shown) VH: EVQLVQSGAEVKKPGESLRISCKASGYTFTSYWVHWVRQMPGKGLEWIGNIDPSDSDTHYNQKFKDHVTLSVDKSISTAYLQLSSLKASDTAMYYCVRGGTGTMAWFAYWGQGTLVTVSS VL: DVVMTQSPLSLPVTLGQPASISCRSSQSLVHSYGNTYLYWYQQRPGQSPRLLIYRVSNRFSGVPDRFSGSGSGTDFTLKISRVEAEDVGVYFCFQGTHVPYTFGGGTKVEIKR | 3.9 ng/mL |
| HEFLB (antibody, human IgG4 S228P, kappa, V domains shown) VH: EVQLVQSGAEVKKPGESLRISCKASGYSFTSYWVHWVRQMPGKGLEWMGNIDPSDSDTHYSPSFQGHVTLSVDKSISTAYLQLSSLKASDTAMYYCVRGGTGTLAYFAYWGQGTLVTVSS VL: DVVMTQSPLSLPVTLGQPASISCRSSQSLVHSYGNTYLYWFQQRPGQSPRLLIYRVSNRFSGVPDRFSGSGSGTDFTLKISRVEAEDVGVYYCFQGTHVPYTFGGGTKVEIKR | 4.4 ng/mL |
| HEFLA (antibody, human IgG4 S228P, kappa, V domains shown) VH: EVQLVQSGAEVKKPGESLRISCKASGYSFTSYWVHWVRQMPGKGLEWMGNIDPSDSDTHYSPSFQGHVTLSVDKSISTAYLQLSSLKASDTAMYYCVRGGTGTLAYFAYWGQGTLVTVSS VL: DVVMTQSPLSLPVTLGQPASISCRSSQSLVHSYGNTYLYWYQQRPGQSPRLLIYRVSNRFSGVPDRFSGSGSGTDFTLKISRVEAEDVGVYFCFQGTHVPYTFGGGTKVEIKR | 7.1 ng/mL |

Second part, the binder after the results:

| EC50 | Binder |
| --- | --- |
| 5.1 ng/mL | HFLA (antibody, human IgG4 S228P, kappa, V domains shown) VH: EVQLVQSGAEVKKPGESLRISCKASGYSFTSYWVHWVRQMPGKGLEWMGNIDPSDSDTHYSPSFQGHVTLSVDKSISTAYLQLSSLKASDTAMYYCVRGGTGTMAYFAYWGQGTLVTVSS VL: DVVMTQSPLSLPVTLGQPASISCRSSQSLVHSYGNTYLYWYQQRPGQSPRLLIYRVSNRFSGVPDRFSGSGSGTDFTLKISRVEAEDVGVYFCFQGTHVPYTFGGGTKVEIKR |
| 4 ng/mL | HFLB (antibody, human IgG4 S228P, kappa, V domains shown) VH: EVQLVQSGAEVKKPGESLRISCKASGYSFTSYWVHWVRQMPGKGLEWMGNIDPSDSDTHYSPSFQGHVTLSVDKSISTAYLQLSSLKASDTAMYYCVRGGTGTMAYFAYWGQGTLVTVSS VL: DVVMTQSPLSLPVTLGQPASISCRSSQSLVHSYGNTYLYWFQQRPGQSPRLLIYRVSNRFSGVPDRFSGSGSGTDFTLKISRVEAEDVGVYYCFQGTHVPYTFGGGTKVEIKR |
